Test system: Pichia pastoris GS115 yeast cells expressing luciferase, hispidin hydroxylase and coumarate-CoA ligase 1
Test: Screening of PKS for hispidin-synthase activity in yeast colonies sprayed with caffeic acid
Type: cell-based
Details: colonies sprayed with caffeic acid solution
Text: The selected nucleotide sequences for expression in Pichia pastoris yeast cells and Nicotiana benthamiana plant cells were optimized. The resulting nucleic acids were obtained synthetically and cloned into pGAPZ vector and used for verifying ability of the expressed proteins to synthesize hispidin.
For this purpose, in genome of Pichia pastoris GS115 yeast line, constitutively expressing Neonothopanus nambi luciferase and hispidin hydroxylase, obtained according to Example 1, there was additionally introduced pGAPZ plasmid, comprising gene of
Arabidopsis thaliana coumarate-CoA ligase 1 (which nucleotide and amino acid sequence are shown in SEQ ID NOs: 140, 141), also obtained by oligonucleotide synthesis. The plasmid was linearized at restriction site AvrII and used for transformation into Pichia pastoris GS115 cells.
The obtained yeast cells, constitutively expressing Neonothopanus nambi luciferase and hispidin hydroxylase and Arabidopsis thaliana coumarate-CoA ligase 1, were […] by plasmids comprising coding PKS sequences, and dispersed in Petri dishes with RDB medium, comprising 1 M of sorbitol, 2% (weight/volume) of glucose, 1.34% (weight/volume) of yeast nitrogen base (YNB), 0.005% (weight/volume) of amino acids mixture, 0.00004% (weight/volume) of biotin and 2% (weight/volume) of agar. To identify enzymes having hispidin-synthase activity, the obtained colonies were sprayed with caffeic acid solution, detecting hispidin-synthase presence in cells by occurrence of luminescence. Luminescence emitted by colonies was detected by means of IVIS Spectrum CT (Perkin Elmer, USA). Yeast line constitutively expressing luciferase, hispidin hydroxylase and coumarate-CoA ligase 1, and also wild yeast cells were used as negative control. […] Amino acid sequences coded by then are shown in SEQ ID NOs: 119, 121, 123, 125, 127, 129, 131, 133, 135, 137, 139 respectively.

B1: SEQ ID NO: 133: plant type III polyketide synthase (PKS) (protein, listed as Rheum tataricum)
chain: MAPEESRHAETAVNRAATVLAIGTANPPNCYYQADFPDFYFRATNSDHLTHLKQKFKRICEKSMIEKRYLHLTEEILKENPNIASFEAPSLDVRHNIQVKEVVLLGKEAALKAINEWGQPKSKITRLIVCCIAGVDMPGADYQLTKLLGLQLSVKRFMFYHLGCYAGGTVLRLAKDIAENNKEARVLIVRSEMTPICFRGPSETHIDSMVGQAIFGDGAAAVIVGANPDLSIERPIFELISTSQTIIPESDGAIEGHLLEVGLSFQLYQTVPSLISNCIETCLSKAFTPLNISDWNSLFWIAHPGGRAILDDIEATVGLKKEKLKATRQVLNDYGNMSSACVFFIMDEMRKKSLANGQVTTGEGLKWGVLFGFGPGVTVETVVLSSVPLIT
For B1, which hispidin-synthase activity is on record?
Its hispidin-synthase activity is “had hispidin-synthase activity”.

B2: SEQ ID NO: 119: type III polyketide synthase PKS1 from Aquilaria sinensis (protein, listed as Aquilaria sinensis)
chain: MGSQDVAGGALKGVNPGKATILALGKAFPYQLVMQEFLVDGYFKNTSCKDQELKQKLARLCKTTTVKTRYVVMSEEILNKYPELAVEGIPTLKQRLDIGNEALTEMAIEASQACIKKWGRPASEITHLVYVSSSEARLPGGDLYLAQGLGLSPRTKRVVLYFMGCSGGVAGLRVAKDIAENNPGSRVLLATSETTIVGFKPPSAHRPYDLVGVALFGDGAGAMVIGSDPLPGTESPLFELHTAIQNFLPNTEKTIDGRLTEEGISFKLARELPQIVEDHIEGFCGQLTGVIGLSHKQYNKMFWAVHPGGPAILNRVEKRLDLHPNKLDASRRALEDYGNASSNSIVYVLDYMIEETLKMKTESLEPSEWGLILAFGPGVTFEGILARNLAV
How did the hispidin-synthase activity turn out when B2 was run?
The hispidin-synthase activity was “had hispidin-synthase activity”.

What about the “hispidin-synthase activity, comparison among PKS” value of the same molecule?
The value was “highest activity”.

B3: SEQ ID NO: 125: type III polyketide synthase from Hydrangea macrophylla (protein, listed as Hydrangea macrophylla)
chain: MATKSVAVEEMCKAQKAGGPATILAIGTAVPSNCYYQSEYPDFYFRVTKSDHLTDLKSKFKRMCERSSIKKRYMHLTEEILEENPNMCTFAAPSIDGRQDIVVKEIPKLAKEAASKAIKEWGQPKSNITHLVFCTTSGVDMPGCDYQLTRLLGLRPSIKRLMMYQQGCHAGGTGLRLAKDLAENNKGARVLVVCSEMTVINFRGPSEAHMDSLVGQSLFGDGASAVIVGSDPDLSTEHPLYQIMSASQIIVADSEGAIDGHLRQEGLTFHLRKDVPSLVSDNIENTLVEAFTPILMDSIDSIIDWNSIFWIAHPGGPAILNQVQAKVGLKEEKLRVSRHILSEYGNMSSACVFFIMDEMRKRSMEEGKGTTGEGLEWGVLFGFGPGFTVETIVLHSVPI
For B3, which hispidin-synthase activity is on record?
Its hispidin-synthase activity is “had hispidin-synthase activity”.

And the “hispidin-synthase activity, comparison among PKS” value?
Its value is “highest activity”.

B4: SEQ ID NO: 131: plant type III polyketide synthase (PKS) (protein)
chain: MATEEMKKLATVMAIGTANPPNCYYQADFPDFYFRVTNSDHLINLKQKFKRLCENSRIEKRYLHVTEEILKENPNIAAYEATSLNVRHKMQVKGVAELGKEAALKAIKEWGQPKSKITHLIVCCSAGVDMPGADYQLTKLLDLDPSVKRFMFYHLGCYAGGTVLRLAKDIAENNKGARVLIVCSEMTTTCFRGPSETHLDSMIGQAILGDGAAAVIVGADPDLTVERPIFELVSTAQTIVPESHGAIEGHLLESGLSFHLYKTVPTLISNNIKTCLSDAFTPLNISDWNSLFWIAHPGGPAILDQVTAKVGLEKEKLKVTRQVLKDYGNMSSATVFFIMDEMRKKSLENGQATTGEGLEWGVLFGFGPGITVETVVLRSVPVIS
modifications: Amino acid sequence of the mutant L132S PKS from Rheum palmatum, optimized for expression in Nicotiana benthamiana
With B4 as the molecule, how does the hispidin-synthase activity read?
Its hispidin-synthase activity is “had hispidin-synthase activity”.

B5: SEQ ID NO: 137: plant type III polyketide synthase (PKS) (protein, listed as Piper methysticum)
chain: MSKTVEDRAAQRAKGPATVLAIGTATPANVVYQTDYPDYYFRVTKSEHMTKLKNKFQRMCDRSTIKKRYMVLTEELLEKNLSLCTYMEPSLDARQDILVPEVPKLGKEAADEAIAEWGRPKSEITHLIFCTTCGVDMPGADYQLTKLLGLRSSVRRTMLYQQGCFGGGTVLRLAKDLAENNAGARVLVVCSEITTAVNFRGPSDTHLDLLVGLALFGDGAAAVIVGADPDPTLERPLFQIVSGAQTILPDSEGAINGHLREVGLTIRLLKDVPGLVSMNIEKCLMEAFAPMGIHDWNSIFWIAHPGGPTILDQVEAKLGLKEEKLKSTRAVLREYGNMSSACVLFILDEVRKRSMEEGKTTTGEGFDWGVLFGFGPGFTVETVVLHSMPIPKADEGR
For B5, which hispidin-synthase activity is on record?
Its hispidin-synthase activity is “had hispidin-synthase activity”.

B6: SEQ ID NO: 127: plant type III polyketide synthase (PKS) (protein, listed as Physcomitrella patens)
chain: B5 chain
B6 was tested. Which hispidin-synthase activity did it give?
The hispidin-synthase activity was “had hispidin-synthase activity”.

B7: SEQ ID NO: 121: type III polyketide synthase PKS2 from Aquilaria sinensis (protein, listed as Aquilaria sinensis)
chain: MSQAIADNAYRHHLKRAPTPGKATVLALGKAFPKQVIPQENLVEGYIRDTKCEDVSIKEKLERLCKTTTVKTRYTVMSKEILDNYPELVTEGSPTIRQRLEIANPAVVEMAKEASLACIKQWGRPAGDITHIVYVSSSEIRLPGGDLYLANELGLKNDINRIMLYFLGCYGGVTGLRVAKDIAENNPGSRILLTTSETTILGFRPPNKSRPYDLVGAALFGDGAAAVIIGANPEIGRESPFMELNFALQQFLPGTHGVIDGRLSEEGINFKLGRDLPQKIEDNIEDFCRKLMIKADGDLKEFNELFWAVHPGGPAILNRLESILDLKNGKLECSRRALMDYGNVSSNTIFYVMEYMREELKREGSEEWGLALAFGPGITFEGILLRSL
Which hispidin-synthase activity does the source give for B7 here?
The hispidin-synthase activity was “had hispidin-synthase activity”.

And the “hispidin-synthase activity, comparison among PKS” value?
Its value is “highest activity”.

B8: SEQ ID NO: 123: type III polyketide synthase from Arabidopsis thaliana (protein, listed as Arabidopsis thaliana)
chain: MSNSRMNGVEKLSSKSTRRVANAGKATLLALGKAFPSQVVPQENLVEGFLRDTKCDDAFIKEKLEHLCKTTTVKTRYTVLTREILAKYPELTTEGSPTIKQRLEIANEAVVEMALEASLGCIKEWGRPVEDITHIVYVSSSEIRLPGGDLYLSAKLGLRNDVNRVMLYFLGCYGGVTGLRVAKDIAENNPGSRVLLTTSETTILGFRPPNKARPYDLVGAALFGDGAAAVIIGADPRECEAPFMELHYAVQQFLPGTQNVIEGRLTEEGINFKLGRDLPQKIEENIEEFCKKLMGKAGDESMEFNDMFWAVHPGGPAILNRLETKLKLEKEKLESSRRALVDYGNVSSNTILYVMEYMRDELKKKGDAAQEWGLGLAFGPGITFEGLLIRSLTSS
How did the hispidin-synthase activity turn out when B8 was run?
The hispidin-synthase activity was “had hispidin-synthase activity”.

What about the “hispidin-synthase activity, comparison among PKS” value of the same molecule?
Its value is “highest activity”.

B9: SEQ ID NO: 129: plant type III polyketide synthase (PKS) (protein, listed as Polygonum cuspidatum)
chain: MAPAVADIRKAQRAEGPATVLAIGTATPPNCVYQKDYPDYYFRVTNSDHMTDLKEKFRRMCEKSNIEKRYMYLTEEILKENPNMCSYMQTSSLDTRQDMVVSEVPRLGKEAAQKAIKEWGQPKSKITHVIMCTTSGVDMPGADYQLTKLLGLHPSVKRFMMYQQGCFAGGTVLRLAKDLAENNRGARVLVVCSEITAICFRGPTDTHPDSMVGQALFGDGSGAVIIGADPDLSIEKPIFELVWTAQTILPDSEGAIDGHLREVGLTFHLLKDVPGLISKNIEKNLTEAFSPLNVSDWNSLFWIAHPGGPAILDQVETKLGLKEEKLKATRQVLNDYGNMSSACVLFIMDEMRKKSVENGHATTGEGLEWGVLFGFGPGLTVETVVLHSVPVAN
With B9 as the molecule, how does the hispidin-synthase activity read?
Its hispidin-synthase activity is “had hispidin-synthase activity”.

B10: SEQ ID NO: 139: plant type III polyketide synthase (PKS) (protein, listed as Piper methysticum)
chain: MSKMVEEHWAAQRARGPATVLAIGTANPPNVLYQADYPDFYFRVTKSEHMTQLKEKFKRICDKSAIRKRHLHLTEELLEKNPNICAHMAPSLDARQDIAVVEVPKLAKEAATKAIKEWGRPKSDITHLIFCTTCGVDMPGADYQLTTLLGLRPTVRRTMLYQQGCFAGGTVLRHAKDFAENNRGARVLAVCSEFTVMNFSGPSEAHLDSMVGMALFGDGASAVIVGADPDFAIERPLFQLVSTTQTIVPDSDGAIKCHLKEVGLTLHLVKNVPDLISNNMDKILEEAFAPLGIRDWNSIFWTAHPGGAAILDQLEAKLGLNKEKLKTTRTVLREYGNMSSACVCFVLDEMRRSSLEEGKTTSGEGLEWGILLGFGPGLTVETVVLRSVPISTAN
B10 was tested. Which hispidin-synthase activity did it give?
Its hispidin-synthase activity is “had hispidin-synthase activity”.
